Test results taken from patent publication US20050221381A1, “Method for isolating ligands” (priority 2002, published 2005).
Entries after “also recorded” stand apart in the source; their conditions may differ. Read-outs that look alike come from different tables or passages of the source.

Tests used:
[1] = test system: DRB1*0401, DRB1*0101, DRB1*0404, DRB1*0701 and DRB1*1101; experiment: Binding to soluble HLA molecules of different allels (promiscuity); parameters: species or system human
Experimental: In peptide binding reactions HLA molecules were used in a concentration of 0.5 μM, and each single peptide was added in 10-fold molar excess (5 μM) if not mentioned differently. […] The reaction was performed in PBS buffer (pH 7.4) at room temperature for 48 hours in the presence of a protease inhibitor cocktail (Roche) and 0.1% octyl-b-D-glucopyranoside (Sigma).
Peptide binding was evaluated in an SDS-stability assay (Gorga et al., 1987): trimeric HLA class II ab-peptide complexes are resistant to SDS and consequently appear as ˜60 kDa band in SDS-PAGE Western blot analysis. Individual HLA class II α and β chains not stabilized by a peptide binding with intermediate to high affinity migrate as ˜35 kDa and ˜30 kDa bands, respectively.
The binding affinities to DRB1*0701 and DRB1*1101 were tested by a peptide-competition assay (Reay et al., 1992). Briefly, binding of the biotinylated CLIP peptide (reference peptide) has been used for monitoring of HLA:peptide complex formation. […] In the case of lower affinity peptides they should be added in excess to the reference peptide to compete for occupancy of HLA binding grove. […] Alternatively, comparing of the amount of reference peptide bound to HLA molecules in the presence or absence of competitor peptide one can determine the binding activity of the peptide of interest.
In the present peptide-competition assay conditions of peptide binding were similar to described above. Soluble HLA molecules were used in the concentration of 0.5 μM and biotinylated CLIP was added to all samples in the final concentration of 2 μM. Competitor peptides were added in three different concentrations: 0.25, 5 and 100 μM. Binding reaction was performed in PBS buffer (pH 7.4) for 18 hours at 37° C. […] Briefly, MaxiSorb 96-well plates (Nunc, Denmark) were coated with mouse anti-αβ antibody L243 (purified from ATCC HB-55) by overnight incubation with 50 μl of 10 μg/ml dilution in PBS at 4° C. Non-specific binding to the plastic was blocked by incubation with T-PBS containing 3% of BSA for 2 hours at 37° C. and binding reactions were then “captured” for 2 hours at room temperature. […] The optical density at 405 nm was measured on a microplate reader SUNRISE (Tecan).
Some of the identified DRB1*0401 binding peptides, as well as others chosen by prediction algorithms were also tested for binding to soluble HLA molecules of different allels: DRB1*0101, DRB1*0404, DRB1*0701 and DRB1*1101 (Table 3).

[2] = test system: PBMC (CD4 and CD8 positive T-cell compartments); experiment: Intracellular IFN-γ staining combined with surface staining for CD4, CD8, CD69 (FACS); assay type: cell-based, human; conditions: donor 10788, peptide 80 μg/ml (FIG. 11)
Experimental: To distinguish between CD8-positive CTL mediated or CD4-positive HTL mediated reactivity, intracellular cytokine staining combined with staining for surface markers was performed: after thawing, PBMNC were kept overnight (37° C., 5% CO2) in RPMI1640 with 10% human serum type AB (BioWhittaker). Next day aliquots of 2 million PBMNC were incubated with peptide (80 μg/ml) or Concanavalin A (SIGMA). After 1 h, 10 μg/ml brefeldin A (SIGMA) were added and incubation was continued for 5 hours. Surface staining for CD4 (phycoerythrin), CD8 (cychrome), CD69 (allophycocyanine) was done with antibodies labelled as indicated (Pharmingen, San Diego, Calif., USA). After fixation with 1% para-formaldehyde in PBS, cells were permeabilized by incubating for 15 min in 0.5% BSA/0.1% Na-azide/0.1% saponin in PBS. Intracellular cytokines were stained with anti-IFN-γ (FITC) antibody 4S.B3 (Pharmingen). Samples (100,000 events in the lymphocyte gate) were read on a FACScalibur (Becton Dickinson).
FIG. 11: Confirmation of simultaneous CD4+ and CD8+ T-cell responses against CMVpp65 15mers 469, 470 by intracellular IFN-γ staining. PBMC from 2 donors (10687, 10788) were stimulated with either ConA as positive control (1st column), 15mers containing both putative class I and class II epitopes (columns 2 and 3) or medium as negative control (right column). Cells were stained for intracellular IFN-γ (x-axis) or surface the T-cell differentiation markers CD4 or CD8 (y-axis). Percentage in upper-right quadrant is indicated, numbers significant over background are shown boldface.

[3] = biological target: T1, soluble DRB1*0401 molecules (DR4) (Homo sapiens, UniProt P01903+P01911, A100K/A169T/F76Y/I96L/K127E/L162R/M171V/N62H/P40V/Q125Y/R42H/S133A/S149N/S66Y/V115G/V209L/W38E); assay type: binding; parameters: key: +++: high binding affinity; ++: moderate binding affinity; +: low binding affinity; −: no binding
T1 construct: Soluble HLA class I A*0201 and HLA class II DRA1*0101/DRB1*0101/Ii, DRA1*0101/DRB1*0401/Ii and DRA1*0101/DRB1*0404/Ii molecules were expressed in SC-2 cells; made in house; host or cells: SC-2 cells

[4] = biological target: T2, soluble DRB1*0404 molecules (Homo sapiens, UniProt P01903+P01911, A100R/A169T/F76Y/I96L/K127E/L162R/M171V/N62H/P40V/Q125Y/R42H/S133A/S149N/S66Y/V209L/W38E); experiment: Peptide binding assay, SDS-stability assay
T2 construct: Soluble HLA class I A*0201 and HLA class II DRA1*0101/DRB1*0101/Ii, DRA1*0101/DRB1*0401/Ii and DRA1*0101/DRB1*0404/Ii molecules were expressed in SC-2 cells; made in house; host or cells: SC-2 cells

[5] = biological target: T2, soluble DRB1*0404 molecules; experiment: Peptide binding assay, SDS-stability assay; parameters: key: −: no binding; +/−: weak binding; +: intermediate binding; ++: strong binding; conditions: individual pp65 15mer
[6] = test system: PBMC from CMV seropositive donors; assay type: cell-based, human
[7] = biological target: T3, soluble DRB1*0101 molecules (Homo sapiens, UniProt P01903+P01911, A100R/D57E/F55L/F60I/F76Y/I96L/L162R/M171V/P40L/Q125E/R42F/V115G/Y59C); experiment: Peptide binding assay, SDS-stability assay; parameters: key: −: no binding; +/−: weak binding; +: intermediate binding; ++: strong binding; conditions: individual pp65 15mer
T3 construct: Soluble HLA class I A*0201 and HLA class II DRA1*0101/DRB1*0101/Ii, DRA1*0101/DRB1*0401/Ii and DRA1*0101/DRB1*0404/Ii molecules were expressed in SC-2 cells; made in house; host or cells: SC-2 cells

[8] = biological target: T2, soluble DRB1*0404 molecules; experiment: Peptide binding assay, SDS-stability assay; parameters: key: +++: high binding affinity; ++: moderate binding affinity; +: low binding affinity; −: no binding; conditions: individual pp65 15mer
[9] = biological target: T1, soluble DRB1*0401 molecules (DR4); assay type: binding; parameters: key: −: no binding; +/−: weak binding; +: intermediate binding; ++: strong binding; conditions: individual pp65 15mer, SDS-stability assay
[10] = biological target: T1, soluble DRB1*0401 molecules (DR4); assay type: binding; parameters: key to Binding to DRB1 *0401: −: no binding/T cell response; +/−: weak binding/T cell response; +: intermediate binding/T cell response; ++: strong binding/T cell response; conditions: soluble DRB1*0401 molecules
[11] = biological target: T3, soluble DRB1*0101 molecules; experiment: Peptide binding assay, SDS-stability assay; parameters: key: −: no binding/T cell response; +/−: weak binding/T cell response; +: intermediate binding/T cell response; ++: strong binding/T cell response; conditions: soluble DRB1*0101 molecules
[12] = test system: HLA-DRB1*0401-transgenic mice splenocytes; assay type: in vivo, mouse; parameters: key to DRB1*0401 mice total SC (T cell response) / DRB1*0401 mice CD4+ (T cell response): −: no binding/T cell response; +/−: weak binding/T cell response; +: intermediate binding/T cell response; ++: strong binding/T cell response; conditions: IFN-gamma ELISpot, ex vivo re-stimulation; for DRB1*0401 mice CD4+ (T cell response): enriched CD4+ fraction of splenocytes of HLA-DR4 transgenic mice vaccinated with the longer peptide; for DRB1*0401 mice total SC (T cell response): total splenocytes of HLA-DR4 transgenic mice vaccinated with the longer peptide
[13] = biological target: T2, soluble DRB1*0404 molecules; experiment: Peptide binding assay, SDS-stability assay; parameters: key: −: no binding/T cell response; +/−: weak binding/T cell response; +: intermediate binding/T cell response; ++: strong binding/T cell response; conditions: soluble DRB1*0404 molecules
[14] = biological target: T3, soluble DRB1*0101 molecules; experiment: Peptide binding assay, SDS-stability assay; parameters: key: +++: high binding affinity; ++: moderate binding affinity; +: low binding affinity; −: no binding; conditions: individual pp65 15mer
[15] = individual pp65 15mer, SDS-stability assay

EDSDNEIHNPAVFTW [Peptide 470]
Affinity for several HLA molecules (promiscuity) [1]: affinity for at least two HLA molecules
Intracellular IFN-γ in CD4 and CD8 positive T-cell compartments [2]: significant IFN-γ secretion in both the CD8 and CD4 positive T-cell compartments
Binding to DRB1*0401 [3, 15]: −
Binding to DRB1*0404 (in words) [4]: found to bind to DRB1*0404; also recorded: weakly binding to DRB1*0404
Binding to DRB1*0404 [5]: +/−
Induction of IFN-gamma secretion in T cells / PBMC from CMV seropositive donors [6]: induce IFN-gamma secretion; also recorded: can induce functional, IFN-gamma secreting T cells in humans; also recorded: induce INF-gamma production

LVPMVATVQGQNLKY [Peptide 496]
Affinity for several HLA molecules (promiscuity) [1]: affinity for at least two HLA molecules
Binding to DRB1*0401 [3, 15]: −
Binding to DRB1*0404 [5]: +
Binding to DRB1*0101 [7]: +

LVSQYTPDSTPCHRG [Peptide 57]
Binding to DRB1*0404 [8]: −
Binding to DRB1*0401 [9]: ++
Binding to DRB1 *0401 [10]: ++
Binding to DRB1*0101 [11]: −
DRB1*0401 mice CD4+ (T cell response) [12]: +
DRB1*0401 mice total SC (T cell response) [12]: ++
Binding to DRB1*0404 [13]: −
Induction of IFN-gamma secretion in T cells / PBMC from CMV seropositive donors [6]: induce INF-gamma production
T-cell responses, IFN-γ ELIspot ([6]; donor 10788 (FIG. 10)): strong T-cell responses
Binding to DRB1*0101 [14]: −

MSIYVYALPLKMLNI [Peptide 109]
Binding to DRB1*0401 [3]: −
Binding to DRB1*0101 [7]: +

DEDSDNEIHNPAVFT [Peptide 469]
Intracellular IFN-γ in CD4 and CD8 positive T-cell compartments [2]: significant IFN-γ secretion in both the CD8 and CD4 positive T-cell compartments
Binding to DRB1*0401 [3, 15]: −
Binding to DRB1*0404 (in words) [4]: found to bind to DRB1*0404; also recorded: weakly binding to DRB1*0404
Binding to DRB1*0404 [5]: +/−
Induction of IFN-gamma secretion in T cells / PBMC from CMV seropositive donors [6]: induce IFN-gamma secretion; also recorded: can induce functional, IFN-gamma secreting T cells in humans; also recorded: induce INF-gamma production

WKEPDVYYTSAFVFP [Peptide 175]
Binding to DRB1 *0401 [10]: −
Binding to DRB1*0401 [3, 15]: −
DRB1*0401 mice CD4+ (T cell response) [12]: +
DRB1*0401 mice total SC (T cell response) [12]: +
Binding to DRB1*0101 [7]: +
